Legend:
CD8 on CD8+ T cells = molecular target: T1, CD8 on CD8+ T cells (human, UniProt P01732 22-235); assay: FACS on CD8+ T cells
T1 construct: whole, on cells

[1] = molecular target: human IL-12 receptor complex (human, UniProt P42701 24-662; Q99665 24-862); assay: cell-based or functional assay
Sequence of human IL-12 receptor complex (Q99665 24-862, chain 2 of 2, other chains not shown): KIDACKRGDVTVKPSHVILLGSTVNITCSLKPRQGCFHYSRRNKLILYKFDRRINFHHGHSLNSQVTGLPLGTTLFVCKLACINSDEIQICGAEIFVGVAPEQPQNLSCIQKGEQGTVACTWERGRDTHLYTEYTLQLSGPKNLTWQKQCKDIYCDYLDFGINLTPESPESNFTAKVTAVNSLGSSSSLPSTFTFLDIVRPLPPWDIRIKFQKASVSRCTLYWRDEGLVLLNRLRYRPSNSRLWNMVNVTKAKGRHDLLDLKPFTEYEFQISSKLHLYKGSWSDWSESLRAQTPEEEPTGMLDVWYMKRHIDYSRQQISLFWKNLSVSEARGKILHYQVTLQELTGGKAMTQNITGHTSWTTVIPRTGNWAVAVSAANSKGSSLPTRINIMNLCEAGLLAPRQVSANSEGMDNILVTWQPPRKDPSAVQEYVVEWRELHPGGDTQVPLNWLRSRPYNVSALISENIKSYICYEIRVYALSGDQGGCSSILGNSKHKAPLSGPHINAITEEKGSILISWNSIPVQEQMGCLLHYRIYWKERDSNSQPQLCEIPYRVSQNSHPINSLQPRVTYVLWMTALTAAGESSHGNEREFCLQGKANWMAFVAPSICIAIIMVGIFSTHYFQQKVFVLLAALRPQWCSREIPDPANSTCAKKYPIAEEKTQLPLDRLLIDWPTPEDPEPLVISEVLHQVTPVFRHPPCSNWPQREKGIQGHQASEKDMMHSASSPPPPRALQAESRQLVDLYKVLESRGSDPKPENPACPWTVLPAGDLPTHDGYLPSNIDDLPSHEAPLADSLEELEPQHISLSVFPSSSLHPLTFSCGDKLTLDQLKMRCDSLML

T1 sequence (P01732 22-235): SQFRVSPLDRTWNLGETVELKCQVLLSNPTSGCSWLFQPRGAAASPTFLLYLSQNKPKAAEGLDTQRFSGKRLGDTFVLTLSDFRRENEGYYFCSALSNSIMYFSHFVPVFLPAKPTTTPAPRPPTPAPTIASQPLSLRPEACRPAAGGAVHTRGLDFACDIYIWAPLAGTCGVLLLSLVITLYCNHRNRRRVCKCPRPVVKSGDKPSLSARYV

B1: Fab-IL-12(WT)-Fc-CD4 Ab (other)
heavy 1: QVQLQQSGPEVVKPGASVKMSCKASGYTFTSYVIHWVRQKPGQGLDWIGYINPYNDGTDYDEKFKGKATLTSDTSTSTAYMELSSLRSEDTAVYYCAREKDNYATGAWFAYWGQGTLVTVSSASTKGPSVFPLAPSSKSTSGGTAALGCLVKDYFPEPVTVSWNSGALTSGVHTFPAVLQSSGLYSLSSVVTVPSSSLGTQTYICNVNHKPSNTKVDKKVEPKSCDKPGSGIWELKKDVYVVELDWYPDAPGEMVVLTCDTPEEDGITWTLDQSSEVLGSGKTLTIQVKEFGDAGQYTCHKGGEVLSHSLLLLHKKEDGIWSTDILKDQKEPKNKTFLRCEAKNYSGRFTCWWLTTISTDLTFSVKSSRGSSDPQGVTCGAATLSAERVRGDNKEYEYSVECQEDSACPAAEESLPIEVMVDAVHKLKYENYTSSFFIRDIIKPDPPKNLQLKPLKNSRQVEVSWEYPDTWSTPHSYFSLTFCVQVQGKSKREKKDRVFTDKTSATVICRKNASISVRAQDRYYSSSWSEWASVPCSGGGGSGGGGSGGGGSGGGGSGRNLPVATPDPGMFPCLHHSQNLLRAVSNMLQKARQTLEFYPCTSEEIDHEDITKDKTSTVEACLPLELTKNESCLNSRETSFITNGSCLASRKTSFMMALCLSSIYEDLKMYQVEFKTMNAKLLMDPKRQIFLDQNMLAVIDELMQALNFNSETVPQKSSLEEPDFYKTKIKLCILLHAFRIRAVTIDRVMSYLNASDKTHTCPPCPAPEDEGGPSVFLFPPKPKDTLMISRTPEVTCVVVDVSHEDPEVKFNWYVDGVEVHNAKTKPREEQYNSTYRVVSVLTVLHQDWLNGKEYKCKVSNKALPAPIEKTISKAKGQPREPQVYVYPPSREEMTKNQVSLTCLVKGFYPSDIAVEWESNGQPENNYKTTPPVLDEDGSFALVSKLTVDKSRWQQGNVFSCSVMHEALHNHYTQKSLSLSPGK
heavy 2: QVQLQQSGPEVVKPGASVKMSCKASGYTFTSYVIHWVRQKPGQGLDWIGYINPYNDGTDYDEKFKGKATLTSDTSTSTAYMELSSLRSEDTAVYYCAREKDNYATGAWFAYWGQGTLVTVSSASTKGPSVFPLAPSSKSTSGGTAALGCLVKDYFPEPVTVSWNSGALTSGVHTFPAVLQSSGLYSLSSVVTVPSSSLGTQTYICNVNHKPSNTKVDKKVEPKSCDKTHTCPPCPAPEKKGGPSVFLFPPKPKDTLMISRTPEVTCVVVDVSHEDPEVKFNWYVDGVEVHNAKTKPREEQYNSTYRVVSVLTVLHQDWLNGKEYKCKVSNKALPAPIEKTISKAKGQPREPQVYVLPPSREEMTKNQVSLLCLVKGFYPSDIAVEWESNGQPENRYMTWPPVLDSDGSFFLYSKLTVDKSRWQQGNVFSCSVMHEALHNHYTQKSLSLSPGK
light: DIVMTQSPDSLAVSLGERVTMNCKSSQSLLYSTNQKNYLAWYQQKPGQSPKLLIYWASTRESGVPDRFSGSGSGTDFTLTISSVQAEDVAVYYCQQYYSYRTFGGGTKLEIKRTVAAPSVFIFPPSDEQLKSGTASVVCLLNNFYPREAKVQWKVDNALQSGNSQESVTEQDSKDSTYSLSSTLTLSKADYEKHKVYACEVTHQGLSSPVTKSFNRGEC
- binding result (CD8 on CD8+ T cells): no binding
- IFN-γ release, % of rIL-12, activated CD8+ T cells [1]: 25%

Source: patent publication US20230167164A1 (IMMUNOWAKE, published 2023)
